The values that follow come from patent publication US20050250143.

This series concerns Myc-tagged MIF1/MSP58 protein (plasmid pCM562), expressed in CHO stable clone #34.
Sequence of Myc-tagged MIF1/MSP58 protein (plasmid pCM562), expressed in CHO stable clone #34 (chain, as listed by the source): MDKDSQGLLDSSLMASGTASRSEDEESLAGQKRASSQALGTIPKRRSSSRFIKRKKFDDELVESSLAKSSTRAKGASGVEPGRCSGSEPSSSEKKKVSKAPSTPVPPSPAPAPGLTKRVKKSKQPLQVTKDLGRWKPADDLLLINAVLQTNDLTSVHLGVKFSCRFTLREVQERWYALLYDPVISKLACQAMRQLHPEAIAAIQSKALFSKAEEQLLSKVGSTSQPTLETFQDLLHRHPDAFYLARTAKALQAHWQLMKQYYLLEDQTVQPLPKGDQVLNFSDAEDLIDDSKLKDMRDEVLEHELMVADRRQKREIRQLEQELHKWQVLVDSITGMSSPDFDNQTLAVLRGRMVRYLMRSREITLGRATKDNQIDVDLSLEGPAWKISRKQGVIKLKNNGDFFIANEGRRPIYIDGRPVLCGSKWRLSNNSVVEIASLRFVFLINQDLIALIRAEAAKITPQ

As for “MEKK1 of CHO cells (cellular, activated by sorbitol)”, the “JNK activation (in vitro GST-Jun(1-223) phosphorylation) after 200 mM sorbitol, CHOMIF1 #34 against CHOpCDNA3” value is “Cells expressing MIF1 showed an inhibition of JNK activation (revelated by weak GST-JUNphosphorylation) in response to sorbitol incubation”.
